# B1: TRIM35 (parent)
# chain: DKELLCCSCQADPRHQGHRVQPVK
# Variants of: B1
# Assay: protein stability index of a GFP-peptide fusion (GPS, HEK-293T) (PSI 1-6); higher = more stable
# Conditions: c terminus: a fixed tail appended
# 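Further: lentivirally expressed fusions sorted by FACS into six bins by GFP to DsRed ratio, PSI derived from sequencing read proportions per bin multiplied by bin number.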
row,Variant,protein stability index
1,DKELLCCSCQADPRHQKHRVQPVK [G17K],3.99
2,DKELLCCSCQADPRHQRHRVQPVK [G17R],3.84
3,DKELLCCSCQADPRHQQHRVQPVK [G17Q],3.59
4,DKELLCCSCQADPRHQLHRVQPVK [G17L],3.35
5,DKELLCCSCQADPRHQFHRVQPVK [G17F],3.49
6,DKELLCCSCQADPRHQVHRVQPVK [G17V],3.08
7,DKELLCCSCQADPRHQNHRVQPVK [G17N],3.82
8,DKELLCCSCQADPRHQDHRVQPVK [G17D],3.88
9,DKELLCCSCQADPRHQTHRVQPVK [G17T],3.78
10,DKELLCCSCQADPRHQMHRVQPVK [G17M],2.88
11,DKELLCCSCQADPRHQIHRVQPVK [G17I],3.48
12,DKELLCCSCQADPRHQCHRVQPVK [G17C],4.33
13,DKELLCCSCQADPRHQSHRVQPVK [G17S],3.66
14,DKELLCCSCQADPRHQHHRVQPVK [G17H],3.95
15,DKELLCCSCQADPRHQWHRVQPVK [G17W],2.67
16,DKELLCCSCQADPRHQEHRVQPVK [G17E],4.17
17,DKELLCCSCQADPRHQPHRVQPVK [G17P],3.12
18,DKELLCCSCQADPRHQYHRVQPVK [G17Y],3.37
19,DKELLCCSCQADPRHQAHRVQPVK [G17A],3.19
20,DKELLCCSCQADPRHGGHRVQPVK [Q16G],3.82
21,DKELLCCSCQADPRHKGHRVQPVK [Q16K],3.96
22,DKELLCCSCQADPRHRGHRVQPVK [Q16R],3.34
23,DKELLCCSCQADPRHTGHRVQPVK [Q16T],3.23
24,DKELLCCSCQADPRHCGHRVQPVK [Q16C],4.54

row,Variant,protein stability index
1,DKELLCCSCQADPRHNGHRVQPVK [Q16N],3.33
2,DKELLCCSCQADPRHSGHRVQPVK [Q16S],3.72
3,DKELLCCSCQADPRHFGHRVQPVK [Q16F],2.32
4,DKELLCCSCQADPRHVGHRVQPVK [Q16V],2.88
5,DKELLCCSCQADPRHAGHRVQPVK [Q16A],3.52
6,DKELLCCSCQADPRHWGHRVQPVK [Q16W],2.67
7,DKELLCCSCQADPRHMGHRVQPVK [Q16M],2.66
8,DKELLCCSCQADPRHIGHRVQPVK [Q16I],3.82
9,DKELLCCSCQADPRHPGHRVQPVK [Q16P],3.66
10,DKELLCCSCQADPRHEGHRVQPVK [Q16E],3.87
11,DKELLCCSCQADPRHYGHRVQPVK [Q16Y],2.57
12,DKELLCCSCQADPRHLGHRVQPVK [Q16L],3.43
13,DKELLCCSCQADPRHHGHRVQPVK [Q16H],3.58
14,DKELLCCSCQADPRHDGHRVQPVK [Q16D],3.98
15,DKELLCCSCFADPRHQGHRVQPVK [Q10F],3.01
16,DKELLCCSCPADPRHQGHRVQPVK [Q10P],3.91
17,DKELLCCSCCADPRHQGHRVQPVK [Q10C],3.38
18,DKELLCCSCVADPRHQGHRVQPVK [Q10V],3.29
19,DKELLCCSCMADPRHQGHRVQPVK [Q10M],3.27
20,DKELLCCSCIADPRHQGHRVQPVK [Q10I],3.87
21,DKELLCCSCSADPRHQGHRVQPVK [Q10S],2.89
22,DKELLCCSCRADPRHQGHRVQPVK [Q10R],3.68
23,DKELLCCSCWADPRHQGHRVQPVK [Q10W],2.53
24,DKELLCCSCGADPRHQGHRVQPVK [Q10G],2.6

row,Variant,protein stability index
1,DKELLCCSCDADPRHQGHRVQPVK [Q10D],4.1
2,DKELLCCSCNADPRHQGHRVQPVK [Q10N],4.07
3,DKELLCCSCAADPRHQGHRVQPVK [Q10A],3.41
4,DKELLCCSCYADPRHQGHRVQPVK [Q10Y],3.49
5,DKELLCCSCTADPRHQGHRVQPVK [Q10T],4.04
6,DKELLCCSCLADPRHQGHRVQPVK [Q10L],2.85
7,DKELLCCSCEADPRHQGHRVQPVK [Q10E],4.44
8,DKELLCCSCHADPRHQGHRVQPVK [Q10H],3.79
9,DKELLCCSCKADPRHQGHRVQPVK [Q10K],3.8
10,DKELLCCSCQADPRYQGHRVQPVK [H15Y],3
11,DKELLCCSCQADPRSQGHRVQPVK [H15S],3.78
12,DKELLCCSCQADPRCQGHRVQPVK [H15C],4.26
13,DKELLCCSCQADPRTQGHRVQPVK [H15T],3.57
14,DKELLCCSCQADPRKQGHRVQPVK [H15K],3.44
15,DKELLCCSCQADPRWQGHRVQPVK [H15W],3.33
16,DKELLCCSCQADPRIQGHRVQPVK [H15I],2.99
17,DKELLCCSCQADPRAQGHRVQPVK [H15A],3.48
18,DKELLCCSCQADPRLQGHRVQPVK [H15L],3.52
19,DKELLCCSCQADPRFQGHRVQPVK [H15F],3.62
20,DKELLCCSCQADPRQQGHRVQPVK [H15Q],3.02
21,DKELLCCSCQADPRMQGHRVQPVK [H15M],2.96
22,DKELLCCSCQADPRGQGHRVQPVK [H15G],3.15
23,DKELLCCSCQADPREQGHRVQPVK [H15E],3.56
24,DKELLCCSCQADPRVQGHRVQPVK [H15V],2.95

row,Variant,protein stability index
1,DKELLCCSCQADPRPQGHRVQPVK [H15P],3.54
2,DKELLCCSCQADPRDQGHRVQPVK [H15D],4.23
3,DKELLCCSCQADPRNQGHRVQPVK [H15N],3.33
4,DKELLCCSLQADPRHQGHRVQPVK [C9L],3.09
5,DKELLCCSPQADPRHQGHRVQPVK [C9P],4.89
6,DKELLCCSGQADPRHQGHRVQPVK [C9G],4.1
7,DKELLCCSRQADPRHQGHRVQPVK [C9R],4.42
8,DKELLCCSIQADPRHQGHRVQPVK [C9I],4.14
9,DKELLCCSYQADPRHQGHRVQPVK [C9Y],4.52
10,DKELLCCSHQADPRHQGHRVQPVK [C9H],4.1
11,DKELLCCSVQADPRHQGHRVQPVK [C9V],3.27
12,DKELLCCSNQADPRHQGHRVQPVK [C9N],4.6
13,DKELLCCSMQADPRHQGHRVQPVK [C9M],4.03
14,DKELLCCSSQADPRHQGHRVQPVK [C9S],4.47
15,DKELLCCSQQADPRHQGHRVQPVK [C9Q],4.65
16,DKELLCCSTQADPRHQGHRVQPVK [C9T],4.28
17,DKELLCCSKQADPRHQGHRVQPVK [C9K],4.64
18,DKELLCCSCQADPRHQGHFVQPVK [R19F],2.66
19,DKELLCCSCQADPRHQGHCVQPVK [R19C],3.63
20,DKELLCCSCQADPRHQGHAVQPVK [R19A],3.62
21,DKELLCCSCQADPRHQGHGVQPVK [R19G],3.63
22,DKELLCCSCQADPRHQGHEVQPVK [R19E],4.33
